The sequences below were run against Hck (UniProt P08631) (assay: phosphorylation enrichment, bacterial display (enrichment ratio); higher = better substrate or ligand; peptides without Tyr show the background).
Sequence of Hck (P08631 whole entry, looked up): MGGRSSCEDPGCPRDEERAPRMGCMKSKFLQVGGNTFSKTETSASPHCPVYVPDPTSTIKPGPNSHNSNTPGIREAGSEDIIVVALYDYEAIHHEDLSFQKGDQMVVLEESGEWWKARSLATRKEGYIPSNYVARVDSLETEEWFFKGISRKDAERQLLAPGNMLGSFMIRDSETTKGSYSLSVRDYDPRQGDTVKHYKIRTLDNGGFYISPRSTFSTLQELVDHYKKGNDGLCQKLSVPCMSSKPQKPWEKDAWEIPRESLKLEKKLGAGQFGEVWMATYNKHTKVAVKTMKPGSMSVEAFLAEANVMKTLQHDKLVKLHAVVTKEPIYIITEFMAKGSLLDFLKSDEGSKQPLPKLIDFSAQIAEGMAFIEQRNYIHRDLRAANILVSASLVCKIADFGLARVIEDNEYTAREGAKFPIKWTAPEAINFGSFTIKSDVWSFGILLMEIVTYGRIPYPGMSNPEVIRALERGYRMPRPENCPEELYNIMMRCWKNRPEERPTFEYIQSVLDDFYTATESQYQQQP
With QEALEYFMKQT [PIK3CA_Y1038_M1043T] the phosphorylation enrichment was 1.05. With LTTEAYEWEPC [ELMOD3_Y61_R66C] the phosphorylation enrichment was 1.88. For SMAKFYASEIA [ACADSB_Y373_YF], the phosphorylation enrichment was 0.518. Work on EFITRYIDSLK [PSMA7_Y110_A112D_YF] yielded a phosphorylation enrichment of 0.501. YQASYYRRGDR [LTK_Y677_R673Q] was tested, and the phosphorylation enrichment was 0.57. ANFTEYVATSW [CDKL5_Y171_R175S_YF] was tested, and the phosphorylation enrichment was 0.511. In the case of GTATTYLCGVK [ALPL_Y117_A116T], the phosphorylation enrichment is reported as 0.582. For DKITQYVEEVR [STX2_Y49_K54R], the phosphorylation enrichment was 0.517. Work on FSCLPCGRLAF [SLC52A2_Y305_Y305C_YF] yielded a phosphorylation enrichment of 0.389. With YTFNSYYMHWV [IGHV1-46_Y51_T49N] the phosphorylation enrichment was 2.52. RKLASYQSCLL [DHX37_Y1080_R1081Q] gave a phosphorylation enrichment of 0.665. MTRDIYRASFF [ALK_Y1278_A1274T_YF] gave a phosphorylation enrichment of 0.89. With VDTPMYATMQR [TPO_Y55_A53P] the phosphorylation enrichment was 5.46. For GGYTWYCDGKK [PROS1_Y266_C265W], the phosphorylation enrichment was 0.414. Sequence QAFSWYQHQRA [NDST1_Y714_R709Q_YF] has a phosphorylation enrichment of 0.547. IDSTPYRQWYE [RPS8_Y109] showed a phosphorylation enrichment of 0.514. Sequence FYDANYDGKEY [MAPRE2_Y162] has a phosphorylation enrichment of 0.83. IHHIDYFKKTT [FGFR1_Y653_YF] was tested, and the phosphorylation enrichment was 0.52. IYKAAYFGVYD [SLC25A4_Y191_R188K] showed a phosphorylation enrichment of 5.77. Sequence IVRSLYKDLED [VHL_Y185_E186K] has a phosphorylation enrichment of 0.479. Sequence FIGRIYLYLTK [GARS1_Y414] has a phosphorylation enrichment of 0.416. With SFTDPYAQPPL [KMT2D_Y2378_YF] the phosphorylation enrichment was 0.502. ARDVIYIIIPA [FRKtide_2014] gave a phosphorylation enrichment of 1.23. RSDEDYLCREE [POR_Y573_Y575C] showed a phosphorylation enrichment of 0.769. With EHVMPYAANKN [GRIN2A_Y1431] the phosphorylation enrichment was 0.358. DMLFQYLKQIE [RPAP3_Y569_YF] gave a phosphorylation enrichment of 0.571. SKNSKYNAGST [PSEN1_Y315_E318G] showed a phosphorylation enrichment of 0.442. Work on MFNPCYGLFEF [NEDD4L_Y680_Y679C_YF] yielded a phosphorylation enrichment of 2.27. Sequence RGFRVYFTPDS [PTPRF_Y450_YF] has a phosphorylation enrichment of 0.542.

What follows are sequences tested against Jak2 (UniProt O60674) in the same assay as above.
Sequence of Jak2 (O60674 whole entry, looked up): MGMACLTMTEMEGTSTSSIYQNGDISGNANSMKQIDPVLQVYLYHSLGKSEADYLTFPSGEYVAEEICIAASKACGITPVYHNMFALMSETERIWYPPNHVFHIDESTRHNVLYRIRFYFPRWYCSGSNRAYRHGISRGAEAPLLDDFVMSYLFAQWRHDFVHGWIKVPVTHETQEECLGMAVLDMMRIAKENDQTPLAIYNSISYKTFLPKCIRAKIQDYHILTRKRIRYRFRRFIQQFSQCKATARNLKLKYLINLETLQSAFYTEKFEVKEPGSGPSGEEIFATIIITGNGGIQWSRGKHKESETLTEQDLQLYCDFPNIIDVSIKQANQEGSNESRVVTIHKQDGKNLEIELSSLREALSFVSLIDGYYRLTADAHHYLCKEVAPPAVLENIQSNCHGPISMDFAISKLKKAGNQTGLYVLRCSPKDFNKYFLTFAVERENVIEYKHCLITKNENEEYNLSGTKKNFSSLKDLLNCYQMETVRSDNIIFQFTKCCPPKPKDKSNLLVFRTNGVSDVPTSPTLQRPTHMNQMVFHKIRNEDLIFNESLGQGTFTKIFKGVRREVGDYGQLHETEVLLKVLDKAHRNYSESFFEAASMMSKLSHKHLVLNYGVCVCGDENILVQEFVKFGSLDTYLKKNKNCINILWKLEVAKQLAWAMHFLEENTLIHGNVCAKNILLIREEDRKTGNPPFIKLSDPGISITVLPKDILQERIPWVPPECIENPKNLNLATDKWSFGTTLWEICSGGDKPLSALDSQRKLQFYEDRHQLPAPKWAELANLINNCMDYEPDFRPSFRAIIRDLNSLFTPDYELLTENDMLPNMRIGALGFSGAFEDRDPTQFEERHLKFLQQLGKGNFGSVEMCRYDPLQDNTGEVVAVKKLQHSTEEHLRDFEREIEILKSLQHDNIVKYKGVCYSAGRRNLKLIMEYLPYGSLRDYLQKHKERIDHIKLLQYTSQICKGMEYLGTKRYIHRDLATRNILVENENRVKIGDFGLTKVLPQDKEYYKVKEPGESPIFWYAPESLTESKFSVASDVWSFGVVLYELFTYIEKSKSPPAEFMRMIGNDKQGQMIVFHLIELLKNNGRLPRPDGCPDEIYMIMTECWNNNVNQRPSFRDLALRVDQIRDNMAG
QEALEYFMKQT [PIK3CA_Y1038_M1043T] gave a phosphorylation enrichment of 3.01. LTTEAYEWEPC [ELMOD3_Y61_R66C] showed a phosphorylation enrichment of 6.69. Sequence SMAKFYASEIA [ACADSB_Y373_YF] has a phosphorylation enrichment of 0.619. Sequence EFITRYIDSLK [PSMA7_Y110_A112D_YF] has a phosphorylation enrichment of 0.733. YQASYYRRGDR [LTK_Y677_R673Q] gave a phosphorylation enrichment of 0.635. ANFTEYVATSW [CDKL5_Y171_R175S_YF] gave a phosphorylation enrichment of 0.974. GTATTYLCGVK [ALPL_Y117_A116T] gave a phosphorylation enrichment of 0.946. Work on DKITQYVEEVR [STX2_Y49_K54R] yielded a phosphorylation enrichment of 0.872. FSCLPCGRLAF [SLC52A2_Y305_Y305C_YF] showed a phosphorylation enrichment of 0.67. Work on YTFNSYYMHWV [IGHV1-46_Y51_T49N] yielded a phosphorylation enrichment of 6.39. In the case of RKLASYQSCLL [DHX37_Y1080_R1081Q], the phosphorylation enrichment is reported as 2.02. In the case of MTRDIYRASFF [ALK_Y1278_A1274T_YF], the phosphorylation enrichment is reported as 0.621. VDTPMYATMQR [TPO_Y55_A53P] showed a phosphorylation enrichment of 0.593. GGYTWYCDGKK [PROS1_Y266_C265W] gave a phosphorylation enrichment of 1.47. Sequence QAFSWYQHQRA [NDST1_Y714_R709Q_YF] has a phosphorylation enrichment of 1.43. In the case of IDSTPYRQWYE [RPS8_Y109], the phosphorylation enrichment is reported as 0.79. In the case of FYDANYDGKEY [MAPRE2_Y162], the phosphorylation enrichment is reported as 1.14. Sequence IHHIDYFKKTT [FGFR1_Y653_YF] has a phosphorylation enrichment of 0.613. IYKAAYFGVYD [SLC25A4_Y191_R188K] was tested, and the phosphorylation enrichment was 0.993. IVRSLYKDLED [VHL_Y185_E186K] showed a phosphorylation enrichment of 0.877. Sequence FIGRIYLYLTK [GARS1_Y414] has a phosphorylation enrichment of 1.14. Sequence SFTDPYAQPPL [KMT2D_Y2378_YF] has a phosphorylation enrichment of 0.722. For ARDVIYIIIPA [FRKtide_2014], the phosphorylation enrichment was 1.42. With RSDEDYLCREE [POR_Y573_Y575C] the phosphorylation enrichment was 1.34. EHVMPYAANKN [GRIN2A_Y1431] showed a phosphorylation enrichment of 0.56. DMLFQYLKQIE [RPAP3_Y569_YF] gave a phosphorylation enrichment of 0.976. Sequence SKNSKYNAGST [PSEN1_Y315_E318G] has a phosphorylation enrichment of 0.608. MFNPCYGLFEF [NEDD4L_Y680_Y679C_YF] gave a phosphorylation enrichment of 1.07. With RGFRVYFTPDS [PTPRF_Y450_YF] the phosphorylation enrichment was 1.76.

The sequences below were run against MERTK (UniProt Q12866) in the same assay as above.
Sequence of MERTK (Q12866 whole entry, looked up): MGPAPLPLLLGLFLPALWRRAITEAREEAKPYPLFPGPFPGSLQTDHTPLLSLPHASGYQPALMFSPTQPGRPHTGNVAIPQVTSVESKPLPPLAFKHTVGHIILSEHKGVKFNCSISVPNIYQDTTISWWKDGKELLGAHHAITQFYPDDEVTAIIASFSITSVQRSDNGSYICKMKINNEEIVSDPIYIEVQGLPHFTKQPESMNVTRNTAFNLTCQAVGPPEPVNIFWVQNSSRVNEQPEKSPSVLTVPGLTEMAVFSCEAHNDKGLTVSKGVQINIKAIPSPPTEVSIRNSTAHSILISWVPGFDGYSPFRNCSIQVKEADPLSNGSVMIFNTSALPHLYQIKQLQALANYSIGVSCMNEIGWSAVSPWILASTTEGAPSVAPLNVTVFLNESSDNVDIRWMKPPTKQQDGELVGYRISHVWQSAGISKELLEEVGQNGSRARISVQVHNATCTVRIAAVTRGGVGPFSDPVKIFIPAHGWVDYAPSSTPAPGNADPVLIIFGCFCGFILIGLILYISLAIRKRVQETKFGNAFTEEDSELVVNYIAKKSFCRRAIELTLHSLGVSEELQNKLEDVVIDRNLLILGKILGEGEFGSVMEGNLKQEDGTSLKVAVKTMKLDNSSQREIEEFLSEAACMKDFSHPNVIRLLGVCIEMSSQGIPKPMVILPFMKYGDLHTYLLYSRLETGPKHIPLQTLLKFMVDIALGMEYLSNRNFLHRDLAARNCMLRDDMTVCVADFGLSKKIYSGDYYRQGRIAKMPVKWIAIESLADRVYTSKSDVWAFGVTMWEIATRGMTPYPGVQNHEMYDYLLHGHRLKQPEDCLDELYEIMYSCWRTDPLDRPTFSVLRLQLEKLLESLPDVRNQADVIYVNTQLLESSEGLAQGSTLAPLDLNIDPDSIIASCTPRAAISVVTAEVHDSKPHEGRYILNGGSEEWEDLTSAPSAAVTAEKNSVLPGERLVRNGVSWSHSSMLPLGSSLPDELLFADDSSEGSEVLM
Work on QEALEYFMKQT [PIK3CA_Y1038_M1043T] yielded a phosphorylation enrichment of 0.813. LTTEAYEWEPC [ELMOD3_Y61_R66C] showed a phosphorylation enrichment of 1.57. SMAKFYASEIA [ACADSB_Y373_YF] gave a phosphorylation enrichment of 0.437. EFITRYIDSLK [PSMA7_Y110_A112D_YF] was tested, and the phosphorylation enrichment was 0.479. Work on YQASYYRRGDR [LTK_Y677_R673Q] yielded a phosphorylation enrichment of 0.523. For ANFTEYVATSW [CDKL5_Y171_R175S_YF], the phosphorylation enrichment was 0.512. GTATTYLCGVK [ALPL_Y117_A116T] gave a phosphorylation enrichment of 0.493. For DKITQYVEEVR [STX2_Y49_K54R], the phosphorylation enrichment was 0.411. For FSCLPCGRLAF [SLC52A2_Y305_Y305C_YF], the phosphorylation enrichment was 0.532. With YTFNSYYMHWV [IGHV1-46_Y51_T49N] the phosphorylation enrichment was 6.9. For RKLASYQSCLL [DHX37_Y1080_R1081Q], the phosphorylation enrichment was 0.539. In the case of MTRDIYRASFF [ALK_Y1278_A1274T_YF], the phosphorylation enrichment is reported as 0.464. Sequence VDTPMYATMQR [TPO_Y55_A53P] has a phosphorylation enrichment of 1.81. GGYTWYCDGKK [PROS1_Y266_C265W] gave a phosphorylation enrichment of 0.359. With QAFSWYQHQRA [NDST1_Y714_R709Q_YF] the phosphorylation enrichment was 0.569. IDSTPYRQWYE [RPS8_Y109] was tested, and the phosphorylation enrichment was 0.424. Sequence FYDANYDGKEY [MAPRE2_Y162] has a phosphorylation enrichment of 1.17. In the case of IHHIDYFKKTT [FGFR1_Y653_YF], the phosphorylation enrichment is reported as 0.444. IYKAAYFGVYD [SLC25A4_Y191_R188K] gave a phosphorylation enrichment of 1.4. IVRSLYKDLED [VHL_Y185_E186K] showed a phosphorylation enrichment of 0.496. Sequence FIGRIYLYLTK [GARS1_Y414] has a phosphorylation enrichment of 0.538. In the case of SFTDPYAQPPL [KMT2D_Y2378_YF], the phosphorylation enrichment is reported as 0.468. ARDVIYIIIPA [FRKtide_2014] showed a phosphorylation enrichment of 2.21. In the case of RSDEDYLCREE [POR_Y573_Y575C], the phosphorylation enrichment is reported as 0.785. Work on EHVMPYAANKN [GRIN2A_Y1431] yielded a phosphorylation enrichment of 0.322. With DMLFQYLKQIE [RPAP3_Y569_YF] the phosphorylation enrichment was 0.523. With SKNSKYNAGST [PSEN1_Y315_E318G] the phosphorylation enrichment was 0.536. Sequence MFNPCYGLFEF [NEDD4L_Y680_Y679C_YF] has a phosphorylation enrichment of 2.85. Work on RGFRVYFTPDS [PTPRF_Y450_YF] yielded a phosphorylation enrichment of 0.538.

What follows are sequences tested on c-Abl (mouse) in the same assay as above.
Sequence QEALEYFMKQT [PIK3CA_Y1038_M1043T] has a phosphorylation enrichment of 1.85. Work on LTTEAYEWEPC [ELMOD3_Y61_R66C] yielded a phosphorylation enrichment of 4.16. SMAKFYASEIA [ACADSB_Y373_YF] was tested, and the phosphorylation enrichment was 0.588. Sequence EFITRYIDSLK [PSMA7_Y110_A112D_YF] has a phosphorylation enrichment of 0.483. YQASYYRRGDR [LTK_Y677_R673Q] showed a phosphorylation enrichment of 0.641. ANFTEYVATSW [CDKL5_Y171_R175S_YF] showed a phosphorylation enrichment of 0.892. With GTATTYLCGVK [ALPL_Y117_A116T] the phosphorylation enrichment was 0.811. In the case of DKITQYVEEVR [STX2_Y49_K54R], the phosphorylation enrichment is reported as 0.605. FSCLPCGRLAF [SLC52A2_Y305_Y305C_YF] showed a phosphorylation enrichment of 0.55. YTFNSYYMHWV [IGHV1-46_Y51_T49N] gave a phosphorylation enrichment of 1.1. RKLASYQSCLL [DHX37_Y1080_R1081Q] showed a phosphorylation enrichment of 0.872. For MTRDIYRASFF [ALK_Y1278_A1274T_YF], the phosphorylation enrichment was 4.15. For VDTPMYATMQR [TPO_Y55_A53P], the phosphorylation enrichment was 2.11. With GGYTWYCDGKK [PROS1_Y266_C265W] the phosphorylation enrichment was 0.882. With QAFSWYQHQRA [NDST1_Y714_R709Q_YF] the phosphorylation enrichment was 0.731. IDSTPYRQWYE [RPS8_Y109] gave a phosphorylation enrichment of 0.608. FYDANYDGKEY [MAPRE2_Y162] showed a phosphorylation enrichment of 0.712. IHHIDYFKKTT [FGFR1_Y653_YF] showed a phosphorylation enrichment of 0.501. IYKAAYFGVYD [SLC25A4_Y191_R188K] showed a phosphorylation enrichment of 0.865. With IVRSLYKDLED [VHL_Y185_E186K] the phosphorylation enrichment was 0.691. Sequence FIGRIYLYLTK [GARS1_Y414] has a phosphorylation enrichment of 1.18. SFTDPYAQPPL [KMT2D_Y2378_YF] was tested, and the phosphorylation enrichment was 0.502. Sequence ARDVIYIIIPA [FRKtide_2014] has a phosphorylation enrichment of 1.17. With RSDEDYLCREE [POR_Y573_Y575C] the phosphorylation enrichment was 1.01. Sequence EHVMPYAANKN [GRIN2A_Y1431] has a phosphorylation enrichment of 0.374. DMLFQYLKQIE [RPAP3_Y569_YF] showed a phosphorylation enrichment of 0.577. For SKNSKYNAGST [PSEN1_Y315_E318G], the phosphorylation enrichment was 0.677. MFNPCYGLFEF [NEDD4L_Y680_Y679C_YF] gave a phosphorylation enrichment of 0.917. In the case of RGFRVYFTPDS [PTPRF_Y450_YF], the phosphorylation enrichment is reported as 1.2.
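Note: 11-residue human phosphosite peptides and single-mutation variants displayed on the E. coli surface, counted by deep sequencing, each peptide's frequency after selection divided by its frequency in the unselected input library; frequency after pTyr selection over input frequency; kinase dosed for 20-30% of maximal phosphorylation in three min.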
